# “Also recorded” adds a separate entry of the source.
# B1: PTH^1-84: parathyroid hormone 1-84 standards of the bioassay (bovine PTH 1-84 standard) (protein, UniProt P01268 32-115, looked up)
# Parathyroid hormone: AVSEIQFMHNLGKHLSSMERVEWLRKKLQDVHNFVALGASIAYRDGSSQRPRKKEDNVLVESHQKSLGEADKADVDVLIKAKPQ
# modifications: Parathyroid hormone
# Target: T1, adenylate cyclase-coupled PTH receptors (Rattus norvegicus, UniProt P25961)
# T1 construct: 96-well tissue culture plate containing the rat osteogenic sarcoma cells; endogenous in cells; host or cells: rat osteogenic sarcoma cells (obtained by the methods of Partridge et al. 1981 and Majeska et al. 1980)
# T1 sequence (P25961 27-591): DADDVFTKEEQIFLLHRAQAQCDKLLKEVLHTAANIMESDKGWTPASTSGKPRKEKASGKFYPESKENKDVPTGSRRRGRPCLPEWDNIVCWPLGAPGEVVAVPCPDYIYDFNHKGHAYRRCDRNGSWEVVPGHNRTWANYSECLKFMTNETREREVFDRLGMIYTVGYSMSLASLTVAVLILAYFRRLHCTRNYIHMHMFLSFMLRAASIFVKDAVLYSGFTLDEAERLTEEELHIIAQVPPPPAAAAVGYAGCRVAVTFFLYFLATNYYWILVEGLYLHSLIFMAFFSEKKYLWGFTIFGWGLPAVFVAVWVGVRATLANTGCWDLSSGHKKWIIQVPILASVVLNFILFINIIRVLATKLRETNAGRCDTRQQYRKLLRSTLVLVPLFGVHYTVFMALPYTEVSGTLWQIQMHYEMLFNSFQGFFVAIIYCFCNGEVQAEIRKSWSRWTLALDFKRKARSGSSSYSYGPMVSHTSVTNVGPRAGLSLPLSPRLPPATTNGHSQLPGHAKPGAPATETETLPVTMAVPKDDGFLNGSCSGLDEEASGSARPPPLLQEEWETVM
# Assay: PTH bioassay: cAMP generation in rat osteogenic sarcoma cell culture, cAMP by radioimmunoassay
# Type: cell-based
# Conditions: for bioactivity (cAMP generation): standards of the peptide alone, FIG. 3; for cell culture response, human versus bovine bioactive PTH: hPTH^1-34 compared with bPTH^1-34, FIG. 2; for suppression of cAMP generation by serum in the bioassay medium: FIG. 5
# Experimental: Rat osteogenic sarcoma cells are maintained in culture in Dulbecco's modified Eagle medium ("DMEM"), disclosed in R. Dulbecco, VIROLOGY, 8: 396 (1959), J. Smith, et al., VIROLOGY, 12: 185-196 (1960), Tissue Culture Standards Committee, IN VITRO, 6(2): 93 and available from Gibco, Grand Island, N.Y., containing 1% fetal calf serum, 9% heat-inactivated horse serum, 100 units/ml of penecilin G and 100 μg/ml streptomycin sulfate in sodium sulfate and normal saline solution, available as a concentrate from Gibco, supra. Cells are maintained in this medium in a humidified atmosphere of 5% carbon dioxide and 95% air at 37° C. This rat osteogenic sarcoma cell culture can be obtained according to the methods set forth in N. Partridge, et al., "Functional Properties Of Hormonally Responsive Cultured Normal And Malignant Rat Ostoblastic Cells," ENDOCRINOLOGY, 108: 213-219 (1981), which is incorporated in its entirety herein by reference thereto. This method of obtaining the cell culture is further described in R. Majeska, et al., "Parathyroid Hormone--Responsive Clonal Cell Lines From Rat Osteosarcoma," ENDOCRINOLOGY, 107: 1494-1503 (1980) and R. Majeska, "Maintenance Of Parathyroid Hormone Response in Clonal Rat Osteosarcoma Cell Lines," EXP. CELL RES., 111: 465 (1978), also incorporated in their entirety herein by reference thereto.
# Cells are subcultured from confluent monolayers by removing the culture medium, rinsing the cell layer with Dulbecco's phosphate buffered saline, 0.2 g/l KCl, 0.2 g/l KH2 PO4, […], and Na2 HPO4.7H2 O and available from Gibco, supra, and adding trypsin/EDTA, 0.5 g trypsin (1:250) and 0.2 g EDTA-4Na/l Hank's balanced salt solution without CaCl2, MGCL2.6H2 O and MgSO4.7H2 O and available from Gibco, supra, to cover the cell layer. After 1 minute at 20°-25° C., the trypsin/EDTA is removed and the cells are incubated for 2-3 minutes at 37° C. The cells are resuspended in DMEM and one-fifth to one-tenth of the cells are added to a culture flask of equal size.
# For use in the bioassay of PTH, the above cell suspension is diluted with 4 volumes of DMEM and 0.1 ml of the suspension is pipetted into each well of a 96-well tissue culture plate available from Becton Dickinson Labware, Oxnard, Calif. The cells are cultured in the same atmosphere as above and are ready for use in the bioassay in 24-28 hours.
# 15. The dried eluates are dissolved in 0.6 ml of bioassay medium at 20°-25° C., said bioassay medium consisting of 0.1% glucose, 1% BSA, 1 mM methylisobutylxanthine, and 0.005% phenol red in Dulbecco's phosphate buffer saline (pH 7.3 or within range of about 7-7.5).
# To perform the bioassay of PTH, the medium is removed from all wells of the 96-well tissue culture plate containing the rat osteogenic sarcoma cells by inversion of the plate and blotting of any remaining drops of medium. The plate is replaced upright and 100 μl of the redissolved N-terminal affinity column eluates are added to each of 4 wells of the plate. The plate is incubated at 20°-25° C. for 30 minutes. At this time, the plate is inverted and blotted to remove all remaining medium, replaced upright and placed on ice.
# Each well is washed 3 times by addition of 300 μl of ice cold 0.85% saline followed by inversion and […]. After the third saline wash, 200 μl of ice cold 95% ethyl alcohol containing 0.02M HCl (EtOH/HCl) is added to each well and the plate is incubated at -20° C. for 16-24 hours in order to extract the cAMP from the cells. At the end of this extraction, the EtOH/HCl is removed from each well with a pipet and rinsed with an additional 200 μl of EtOH/HCl. The rinse is combined with the original extract and the solution is dried. An appropriate device for drying the EtOH/HCl samples is a Speed-Vac Concentrator/Evaporator, available from Savant Instruments, Inc., Hicksville, N.Y. The amount of cAMP extracted from the cell layer in each well is quantitated using a radioimmunoassay for cAMP. […]
Molecule,bioactivity (cAMP generation),"cell culture response, human versus bovine bioactive PTH",also measured
"(norleucine^8,18)bPTH^3-34 amide",virtual absence of bioactivity,–,"antagonism of bPTH^1-84 (inhibition of cAMP generation) (bPTH^1-84 added to the standards, FIG. 4): very strong antagonist; bioactivity (cAMP generation) (listed as hPTH^3-34 amide): not bioactive"
bPTH^1-34: bovine parathyroid hormone fragment 1-34,–,respond similarly; also recorded: very close correlation of response,–
"hPTH^1-34: human parathyroid hormone fragment 1-34, available from Peninsula Laboratories",–,respond similarly; also recorded: very close correlation of response,–
"hPTH^37-84: human parathyroid hormone fragment 37-84 (LGAPLAPRDAGSQRPRKKEDNVLVESHEKSLGEADKADVNVLTKAKSQ; Parathyroid hormone; UniProt P01270 68-115, looked up, fragment)",not bioactive; also recorded: virtual absence of bioactivity,–,–
"hPTH^65-84: human parathyroid hormone fragment 65-84 (KSLGEADKADVNVLTKAKSQ; Parathyroid hormone; UniProt P01270 96-115, looked up, fragment)",not bioactive; also recorded: virtual absence of bioactivity,–,–
B1,–,–,suppression of cAMP generation by serum in the bioassay medium (10% serum (fetal calf serum) in bioassay medium): 50 fold; suppression of cAMP generation by serum in the bioassay medium (50% serum (human serum) in bioassay medium): 100 fold

# — patent publication US4508828A, “Bioassay of parathyroid hormone” (Immuno Nuclear Corporation, priority 1983, dated 1985)
